Assay [1] addresses human proTGFβ1 in complex with GARP expressed on transfected HEK293 or Sw480 cells (human, UniProt Q14392 20-662; P01137 30-390). The assay is described as follows: cell-based or functional assay.
Assay [2] concerns the target T1, rGARP-proTGFβ1.
T1 construct: not given
Put plainly: biolayer interferometry (OctetRed 384). As to the method: (§1) The binding affinities of the proTGFβ1-GARP complex-selective antibody candidates to proTGFβ1-GARP complexes were measured by biolayer interferometry on an OctetRed 384 (Fortebio, Menlo Park, Calif.). Strepavidin biosensors (Fortebio, Cat. No. 18-5020) were loaded with biotinylated sGARP-proTGFβ1 complex at 20 μg/ml in sodium acetate buffer, pH 5, washed in the same buffer and transferred to wells containing 10 μg/mL proTGFβ1-GARP complex-selective antibody candidates in the same buffer. The dissociation constant was obtained by non-linear fitting of the responses to a steady state algorithm using Octet software (Table 4). Similar affinities were obtained by kinetic fitting.
(§2) proTGFβ1-GARP complex-selective antibody candidates were measured by biolayer interferometry on an OctetRed 384 (Fortebio, Menlo Park, Calif.) for selectivity for proTGFβ1-GARP complex over other protein complexes (FIG. 4).

Assay [3] deals with T2, TGFβ2 growth factor (UniProt P61812 303-414).
T2 construct: domain: growth factor
T2 sequence (looked up): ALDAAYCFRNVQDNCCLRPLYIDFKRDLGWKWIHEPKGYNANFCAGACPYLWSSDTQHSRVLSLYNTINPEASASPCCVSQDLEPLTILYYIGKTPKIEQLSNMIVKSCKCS
The assay is described as follows: BLI, OctetRed 384 (FIG. 4). As to the method:
as §1
(§3) To ascertain binding specificity, 4B1C1 and 4B16B9 were screened as above for binding to TGFβ1, TGFβ2, TGFβ3, proTGFβ1-LTBP1, proTGFβ1-LTBP3 and proTGFβ1-LRRC33. As described above, antibodies were tested at 10 μg/ml and antigens at 20 μg/ml and tested under the following conditions.
as §2
(In BLI a coated tip is dipped into the sample, and binding shifts an interference pattern.)

For assay [4], the target named is T3, TGFβ3 growth factor (UniProt P10600 301-412).
T3 construct: domain: growth factor
T3 sequence (looked up): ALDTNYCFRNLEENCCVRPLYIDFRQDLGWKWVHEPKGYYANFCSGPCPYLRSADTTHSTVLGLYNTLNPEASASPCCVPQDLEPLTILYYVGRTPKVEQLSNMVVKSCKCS
The assay is described as follows: BLI, OctetRed 384 (FIG. 4). The procedure: as §1, §3, §2

Assay [5] concerns the target T4, TGFβ1 growth factor (human, UniProt P01137 279-390).
T4 construct: domain: growth factor; also called TGFb1 (soluble form)
Put plainly: BLI, OctetRed 384 (FIG. 4). The procedure: as §1, §3, §2

The target of assay [6] is T4, TGFβ1 growth factor. Put plainly: BLI, OctetRed 384, antigen loaded on biosensor. As to the method:
as §1, §3

In assay [7] the target is T5, hGARP-TGFβ1-LAP (human).
T5 construct: not given
Put plainly: biolayer interferometry (OctetRed 384). As to the method:
as §1, §2

human proTGFβ1 in complex with GARP expressed on transfected HEK293 or Sw480 cells, sequence (Q14392 20-662, chain 1 of 2): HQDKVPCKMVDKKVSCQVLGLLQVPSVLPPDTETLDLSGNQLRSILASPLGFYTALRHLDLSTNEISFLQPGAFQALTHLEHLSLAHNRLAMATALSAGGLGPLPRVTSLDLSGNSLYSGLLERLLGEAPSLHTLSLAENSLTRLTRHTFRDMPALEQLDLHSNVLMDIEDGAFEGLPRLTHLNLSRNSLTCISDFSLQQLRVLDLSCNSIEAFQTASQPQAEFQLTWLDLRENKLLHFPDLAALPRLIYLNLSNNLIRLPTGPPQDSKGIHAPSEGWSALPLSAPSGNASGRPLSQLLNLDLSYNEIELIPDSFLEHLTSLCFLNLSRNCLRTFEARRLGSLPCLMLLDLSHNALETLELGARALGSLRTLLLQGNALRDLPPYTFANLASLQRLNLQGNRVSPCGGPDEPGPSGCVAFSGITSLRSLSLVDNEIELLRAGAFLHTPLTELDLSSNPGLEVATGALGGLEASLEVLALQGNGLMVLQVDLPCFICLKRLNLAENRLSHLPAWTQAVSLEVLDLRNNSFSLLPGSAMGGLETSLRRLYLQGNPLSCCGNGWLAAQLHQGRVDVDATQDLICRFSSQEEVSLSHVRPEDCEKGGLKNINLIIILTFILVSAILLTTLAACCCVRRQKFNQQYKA
human proTGFβ1 in complex with GARP expressed on transfected HEK293 or Sw480 cells, sequence (P01137 30-390, chain 2 of 2): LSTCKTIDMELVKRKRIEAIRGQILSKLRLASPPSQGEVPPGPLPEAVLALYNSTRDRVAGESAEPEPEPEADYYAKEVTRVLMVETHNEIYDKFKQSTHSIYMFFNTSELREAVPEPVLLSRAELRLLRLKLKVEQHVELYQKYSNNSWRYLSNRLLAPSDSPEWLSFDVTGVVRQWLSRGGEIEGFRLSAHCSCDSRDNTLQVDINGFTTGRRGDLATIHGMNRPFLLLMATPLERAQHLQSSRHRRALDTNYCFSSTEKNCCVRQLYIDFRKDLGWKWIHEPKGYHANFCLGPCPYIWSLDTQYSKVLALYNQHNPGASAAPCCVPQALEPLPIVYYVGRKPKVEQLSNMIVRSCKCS
T4 sequence (P01137 279-390 limits assumed): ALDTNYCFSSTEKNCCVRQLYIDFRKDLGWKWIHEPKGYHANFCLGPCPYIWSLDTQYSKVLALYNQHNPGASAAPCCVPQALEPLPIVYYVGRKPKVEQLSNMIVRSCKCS
T5 sequence (Q14392 20-627, chain 1 of 2): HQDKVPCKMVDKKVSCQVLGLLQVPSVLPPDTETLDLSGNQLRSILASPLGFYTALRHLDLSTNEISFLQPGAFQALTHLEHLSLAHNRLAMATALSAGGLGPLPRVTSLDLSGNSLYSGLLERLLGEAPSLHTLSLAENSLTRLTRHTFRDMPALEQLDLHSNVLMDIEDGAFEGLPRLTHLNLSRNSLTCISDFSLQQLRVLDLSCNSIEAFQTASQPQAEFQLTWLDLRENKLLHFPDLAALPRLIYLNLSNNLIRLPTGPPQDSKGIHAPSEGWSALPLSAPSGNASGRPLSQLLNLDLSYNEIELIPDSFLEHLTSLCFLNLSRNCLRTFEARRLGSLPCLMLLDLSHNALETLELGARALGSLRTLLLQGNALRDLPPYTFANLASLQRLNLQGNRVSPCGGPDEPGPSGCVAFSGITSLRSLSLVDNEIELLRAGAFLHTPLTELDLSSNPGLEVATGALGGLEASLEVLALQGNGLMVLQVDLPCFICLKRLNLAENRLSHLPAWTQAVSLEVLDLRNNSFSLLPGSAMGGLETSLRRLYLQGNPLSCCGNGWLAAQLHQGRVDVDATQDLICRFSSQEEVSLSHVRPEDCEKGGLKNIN
T5 sequence (P01137 30-390, chain 2 of 2, further chain): as the sequence (P01137 30-390, chain 2 of 2) above

B1: 4B16B9 (antibody, human IgG4 S228P, lambda, V domains shown)
VH: QMQLVQSGAEVKKPGSSVKVSCKASGGTFSSYAISWVRQAPGQGLEWMGGIIPMFGTTNYAQKFQGRVTIIADESTSTAYMELRSLRSDDTAVYYCARDREWEPAYGMDVWGQGTTVTVSS
VL: QSALTQPASVSGSPGQSITISCIGTSSDVGGYNYVSWYQQHPGKAPKLMIYDVSNRPSGVSNRFSGSKSGNTASLTISGLQAEDEAMYYCSAYTVSSTWVFGGGTKVTVLG
notes: Fully human, from a phage display scFv; also called proTGFβ1-GARP complex-selective antibody candidate
Regarding B1, the “IC50 of inhibition of TGFβ1 activation, TMLC reporter cells” value in assay [1] was 1.9 nM. In assay [2], this molecule had a Kd of 0.158 nM. The binding result in assay [3], in assay [4] and in assay [5] was “no binding” throughout.

B2: 4B1C1 (antibody, human IgG4 S228P, kappa, V domains shown)
VH: EVQLVQSGGVVVQPGGSLRLSCAASGFTFDDYTMHWVRQAPGKGLEWVSLISWDGGSTYYADSVKGRFTISRDNSKNSLYLQMNSLRTEDTALYYCAKDADDSTFDIWGQGTMVTVSS
VL: ETTLTQSPATLSVSPGERVTLSCRASQSVSRNLAWYQQKPGQPPKLLIYWASTRESGVPDRFSGSGSGTDFTLTISSLQAEDVAVYYCQQYYSVPYTFGQGTKLEIKR
notes: Fully human, from a phage display scFv; also called 4B1Cl; proTGFβ1-GARP complex-selective antibody candidate
B2: the “IC50 of inhibition of TGFβ1 activation, TMLC reporter cells” value in assay [1] came out at 0.178 nM. Moreover, the binding result in assay [6], in assay [3] and in assay [4] was “no binding” each time. Also, the Kd in assay [2] worked out at 0.187 nM; in assay [7], 11.3 nM.

Broadly, the Kd is the equilibrium constant for the complex coming apart.
